Patent US20240270846A1 (published 2024)
Changes are numbered by the printed parent chain. Numbers in names are those of the source.

B1: GLS3000 N30E one-arm antibody (H chain CE115HA000) (antibody, human IgG1, kappa, L234A L235A, N297A, name in Kabat numbering)
heavy: QVQLVESGGGVVQPGRSLRLSCAASGFTFSNAWMHWVRQAPGKGLEWVAQIKAKSNNYATYYAESVKGRFTISRDDSKNSLYLQMNSLKTEDTAVYYCRYVHYGAYYGVDAWGQGTTVTVSSASTKGPSVFPLAPSSKSTSGGTAALGCLVKDYFPEPVTVSWNSGALTSGVHTFPAVLQSSGLYSLSSVVTVPSSSLGTQTYICNVNHKPSNTKVDKKVEPKSCDKTHTCPPCPAPEAAGGPSVFLFPPKPKDTLMISRTPEVTCVVVDVSHEDPEVKFNWYVDGVEVHNAKTKPREEQYASTYRVVSVLTVLHQDWLNGKEYKCKVSNKALPAPIEKTISKAKGQPREPQVYTLPPSRCELTKNQVSLSCAVKGFYPSDIAVEWESNGQPENNYKTTPPVLDSDGSFFLVSKLTVDKSRWQQGNVFSCSVMHEALHNHYTQKSLSLSPDYKDDDDK
chain: EPKSSDKTHTCPPCPAPELLGGPSVFLFPPKPKDTLMISRTPEVTCVVVDVSHEDPEVKFNWYVDGVEVHNAKTKPREEQYNSTYRVVSVLTVLHQDWLNGKEYKCKVSNKALPAPIEKTISKAKGQPREPQVCTLPPSRDELTKNQVSLWCLVKGFYPSDIAVEWESNGQPENNYKTTPPVLDSDGSFFLYSKLTVDKSRWQQGNVFSCSVMHEALHNRYTQKSLSLSP
light: DIVMTQSPLSLPVTPGEPASISCRSSQSLVHSNRETYLHWYQQKPGQAPRLLIYKVSNRFSGVPDRFSGSGSGTDFTLKISRVEAEDVGVYYCGQGTQVPYTFGQGTKLEIKRTVAAPSVFIFPPSDEQLKSGTASVVCLLNNFYPREAKVQWKVDNALQSGNSQESVTEQDSKDSTYSLSSTLTLSKADYEKHKVYACEVTHQGLSSPVTKSFNRGEC
notes: one-arm antibody
B2: GLS3000 R24D one-arm antibody (H chain CE115HA000) (antibody, human IgG1, kappa, L234A L235A, N297A, name in Kabat numbering)
heavy: B1 heavy
chain: B1 chain
light: B1 light with R24D, E35N
notes: one-arm antibody
B3: GLS3000 N30Y one-arm antibody (H chain CE115HA000) (antibody, human IgG1, kappa, L234A L235A, N297A, name in Kabat numbering)
heavy: B1 heavy
chain: B1 chain
light: B1 light with E35Y
notes: one-arm antibody
B4: GLS3000 N30K one-arm antibody (H chain CE115HA000) (antibody, human IgG1, kappa, L234A L235A, N297A, name in Kabat numbering)
heavy: B1 heavy
chain: B1 chain
light: B1 light with E35K
notes: one-arm antibody
B5: GLS3000 R24T one-arm antibody (H chain CE115HA000) (antibody, human IgG1, kappa, L234A L235A, N297A, name in Kabat numbering)
heavy: B1 heavy
chain: B1 chain
light: B1 light with R24T, E35N
notes: one-arm antibody
B6: GLS3000 N53D one-arm antibody (H chain CE115HA000) (antibody, human IgG1, kappa, L234A L235A, N297A, name in Kabat numbering)
heavy: B1 heavy
chain: B1 chain
light: B1 light with E35N, N58D
notes: one-arm antibody
B7: GLS3000 Q27D one-arm antibody (H chain CE115HA000) (antibody, human IgG1, kappa, L234A L235A, N297A, name in Kabat numbering)
heavy: B1 heavy
chain: B1 chain
light: B1 light with Q27D, E35N
notes: one-arm antibody
B8: GLS3000 Q27L one-arm antibody (H chain CE115HA000) (antibody, human IgG1, kappa, L234A L235A, N297A, name in Kabat numbering)
heavy: B1 heavy
chain: B1 chain
light: B1 light with Q27L, E35N
notes: one-arm antibody
B9: GLS3000 R24P one-arm antibody (H chain CE115HA000) (antibody, human IgG1, kappa, L234A L235A, N297A, name in Kabat numbering)
heavy: B1 heavy
chain: B1 chain
light: B1 light with R24P, E35N
notes: one-arm antibody
B10: GLS3000 N30V one-arm antibody (H chain CE115HA000) (antibody, human IgG1, kappa, L234A L235A, N297A, name in Kabat numbering)
heavy: B1 heavy
chain: B1 chain
light: B1 light with E35V
notes: one-arm antibody
B11: GLS3000 N30S one-arm antibody (H chain CE115HA000) (antibody, human IgG1, kappa, L234A L235A, N297A, name in Kabat numbering)
heavy: B1 heavy
chain: B1 chain
light: B1 light with E35S
notes: one-arm antibody
B12: GLS3000 N30Q one-arm antibody (H chain CE115HA000) (antibody, human IgG1, kappa, L234A L235A, N297A, name in Kabat numbering)
heavy: B1 heavy
chain: B1 chain
light: B1 light with E35Q
notes: one-arm antibody
B13: GLS3000 R24Q one-arm antibody (H chain CE115HA000) (antibody, human IgG1, kappa, L234A L235A, N297A, name in Kabat numbering)
heavy: B1 heavy
chain: B1 chain
light: B1 light with R24Q, E35N
notes: one-arm antibody
B14: GLS3000 N30M one-arm antibody (H chain CE115HA000) (antibody, human IgG1, kappa, L234A L235A, N297A, name in Kabat numbering)
heavy: B1 heavy
chain: B1 chain
light: B1 light with E35M
notes: one-arm antibody
B15: GLS3000 R24G one-arm antibody (H chain CE115HA000) (antibody, human IgG1, kappa, L234A L235A, N297A, name in Kabat numbering)
heavy: B1 heavy
chain: B1 chain
light: B1 light with R24G, E35N
notes: one-arm antibody
B16: GLS3000 R24S one-arm antibody (H chain CE115HA000) (antibody, human IgG1, kappa, L234A L235A, N297A, name in Kabat numbering)
heavy: B1 heavy
chain: B1 chain
light: B1 light with R24S, E35N
notes: one-arm antibody
B17: GLS3000 N30R one-arm antibody (H chain CE115HA000) (antibody, human IgG1, kappa, L234A L235A, N297A, name in Kabat numbering)
heavy: B1 heavy
chain: B1 chain
light: B1 light with E35R
notes: one-arm antibody
B18: GLS3000 Q27P one-arm antibody (H chain CE115HA000) (antibody, human IgG1, kappa, L234A L235A, N297A, name in Kabat numbering)
heavy: B1 heavy
chain: B1 chain
light: B1 light with Q27P, E35N
notes: one-arm antibody
B19: GLS3000 Q27R one-arm antibody (H chain CE115HA000) (antibody, human IgG1, kappa, L234A L235A, N297A, name in Kabat numbering)
heavy: B1 heavy
chain: B1 chain
light: B1 light with Q27R, E35N
notes: one-arm antibody
B20: GLS3000 N53A one-arm antibody (H chain CE115HA000) (antibody, human IgG1, kappa, L234A L235A, N297A, name in Kabat numbering)
heavy: B1 heavy
chain: B1 chain
light: B1 light with E35N, N58A
notes: one-arm antibody
B21: GLS3000 N30L one-arm antibody (H chain CE115HA000) (antibody, human IgG1, kappa, L234A L235A, N297A, name in Kabat numbering)
heavy: B1 heavy
chain: B1 chain
light: B1 light with E35L
notes: one-arm antibody
B22: GLS3000 N30G one-arm antibody (H chain CE115HA000) (antibody, human IgG1, kappa, L234A L235A, N297A, name in Kabat numbering)
heavy: B1 heavy
chain: B1 chain
light: B1 light with E35G
notes: one-arm antibody
B23: GLS3000 Q27E one-arm antibody (H chain CE115HA000) (antibody, human IgG1, kappa, L234A L235A, N297A, name in Kabat numbering)
heavy: B1 heavy
chain: B1 chain
light: B1 light with Q27E, E35N
notes: one-arm antibody
B24: GLS3000 N30T one-arm antibody (H chain CE115HA000) (antibody, human IgG1, kappa, L234A L235A, N297A, name in Kabat numbering)
heavy: B1 heavy
chain: B1 chain
light: B1 light with E35T
notes: one-arm antibody
B25: GLS3000 R24E one-arm antibody (H chain CE115HA000) (antibody, human IgG1, kappa, L234A L235A, N297A, name in Kabat numbering)
heavy: B1 heavy
chain: B1 chain
light: B1 light with R24E, E35N
notes: one-arm antibody
B26: GLS3000 N30P one-arm antibody (H chain CE115HA000) (antibody, human IgG1, kappa, L234A L235A, N297A, name in Kabat numbering)
heavy: B1 heavy
chain: B1 chain
light: B1 light with E35P
notes: one-arm antibody
B27: GLS3000 N30F one-arm antibody (H chain CE115HA000) (antibody, human IgG1, kappa, L234A L235A, N297A, name in Kabat numbering)
heavy: B1 heavy
chain: B1 chain
light: B1 light with E35F
notes: one-arm antibody
B28: GLS3000 N30W one-arm antibody (H chain CE115HA000) (antibody, human IgG1, kappa, L234A L235A, N297A, name in Kabat numbering)
heavy: B1 heavy
chain: B1 chain
light: B1 light with E35W
notes: one-arm antibody
B29: GLS3000 R24Y one-arm antibody (H chain CE115HA000) (antibody, human IgG1, kappa, L234A L235A, N297A, name in Kabat numbering)
heavy: B1 heavy
chain: B1 chain
light: B1 light with R24Y, E35N
notes: one-arm antibody
B30: GLS3000 N30I one-arm antibody (H chain CE115HA000) (antibody, human IgG1, kappa, L234A L235A, N297A, name in Kabat numbering)
heavy: B1 heavy
chain: B1 chain
light: B1 light with E35I
notes: one-arm antibody
B31: GLS3000 N30H one-arm antibody (H chain CE115HA000) (antibody, human IgG1, kappa, L234A L235A, N297A, name in Kabat numbering)
heavy: B1 heavy
chain: B1 chain
light: B1 light with E35H
notes: one-arm antibody
B32: GLS3000 R24A one-arm antibody (H chain CE115HA000) (antibody, human IgG1, kappa, L234A L235A, N297A, name in Kabat numbering)
heavy: B1 heavy
chain: B1 chain
light: B1 light with R24A, E35N
notes: one-arm antibody

The binders below were run against T1, CD3 epsilon homodimer protein (UniProt P07766 23-126) (assay: SPR, CD3e homodimer on chip;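 note: surface plasmon resonance at 25 degrees C, antibodies flowed as analyte over CD3 epsilon homodimer amine-coupled to a CM4 chip, running buffer HBS-EP+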).
T1 construct: also called CD3 (CD3 epsilon)
T1 sequence (P07766 23-126): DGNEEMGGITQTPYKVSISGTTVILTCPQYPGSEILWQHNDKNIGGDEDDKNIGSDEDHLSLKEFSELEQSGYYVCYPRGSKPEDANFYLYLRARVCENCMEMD

| ratio of amounts bound (altered form / unaltered GLS3000 antibody) | Binder |
| --- | --- |
| 0.44 | B1 |
| 0.75 | B2 |
| 1.04 | B3 |
| 1.65 | B4 |
| 0.88 | B5 |
| 0.34 | B6 |
| 0.85 | B7 |
| 0.92 | B8 |
| 0.7 | B9 |
| 0.61 | B10 |
| 0.29 | B11 |
| 0.87 | B12 |
| 0.9 | B13 |
| 0.8 | B14 |
| 0.89 | B15 |
| 0.89 | B16 |

| ratio of amounts bound (altered form / unaltered GLS3000 antibody) | Binder |
| --- | --- |
| 1.86 | B17 |
| 0.29 | B18 |
| 1.19 | B19 |
| 0.61 | B20 |
| 0.7 | B21 |
| 0.47 | B22 |
| 0.88 | B23 |
| 0.29 | B24 |
| 0.83 | B25 |
| 0.31 | B26 |
| 1.1 | B27 |
| 0.99 | B28 |
| 0.87 | B29 |
| 0.61 | B30 |
| 0.98 | B31 |
| 0.86 | B32 |
